Experimental data as given in patent US12545899B2, “Luciferase enzymes for use with thermostable luciferins in bioluminescent assays” (Promega Corporation, priority 2018, dated 2026).
Where a chain is given by its changes, count along the chain named. In names and notes the source's numbering stands.

B1: MK0117: SEQ ID NO: 84; H244W+T344A+I396K+S193A+N228D+L305F+S306P (protein)
chain: MADKNILYGPEPFYPLEDGTAGEQMFDALSRYAAIPGCIALTNAHTKENVLYEEFLKLSCRLAESFKKYGLKQNDTIAVCSENSLQFFLPVIASLYLGIIVAPVNDKYVERELIHSLGIVKPRIVFCSKNTFQKVLNVKSKLKSIETIIILDLNEDLGGYQCLNNFISQNSDSNLDVKKFKPYSFNRDDQVAAIMFSSGTTGLPKGVMLTHKNIVARFSIAKDPTFGDAINPTSAILTVIPFHWGFGMMTTLGYFTCGFRVVLMHTFEEKLFLQSLQDYKVESTLLVPTLMAFLAKSALVEKYDFPHLKEIASGGAPLSKEIGEMVKKRFKLNFVRQGYGLTEATSAVLITPKGDAKPGSTGKIVPLHAVKVVDPTTGKILGPNEPGELYFKGPMKMKGYYNNEEATKAIIDNDGWLRSGDIAYYDNDGHFYIVDRLKSLIKYKGYQVAPAEIEGILLQHPYIVDAGVTGIPDEAAGELPAAGVVVQTGKYLNEQIVQDYVASQVSTAKWLRGGVKFLDEIPKGSTGKIDRKVLRQMLEKHTNGHHHHHHHH
B2: MK0124: SEQ ID NO: 91; H244W+T344M+I396K+S193A+N228D+L305F+S306P+I109V (protein)
chain: B1 chain with A344I
B3: MK0120: SEQ ID NO: 87; H244W+T344A+I396K+S193A+N228D+S306P+I109V (protein)
chain: B1 chain with A316M
B4: MK0118: SEQ ID NO: 85; H244W+T344A+I396K+N228D+L305F+S306P+I109V (protein)
chain: B1 chain
B5: MK0127: SEQ ID NO: 93; H244W+T344A+I396K+S193A+L305F+S306P+I109V (protein)
chain: B1 chain with K107N, T289S
B6: MK0108: SEQ ID NO: 75; I109V (protein)
chain: B1 chain with V109I, A193S, D228N, W244H, F305L, P306S, A344T, K396L
B7: MK0123: SEQ ID NO: 90; H244W+T344A+S193A+N228D+L305F+S306P+I109V (protein)
chain: B1 chain with T342S
B8: MK0125: SEQ ID NO: 92; H244W+T344A+I396L+S193A+N228D+L305F+S306P+I109V (protein)
chain: B1 chain with A316W, A344I
B9: MK0122: SEQ ID NO: 89; H244W+I396K+S193A+N228D+L305F+S306P+I109V (protein)
chain: B1 chain with Y339M
B10: MK0119: SEQ ID NO: 86; T344A+I396K+S193A+N228D+L305F+S306P+I109V (protein)
chain: B1 chain with V348I
B11: MK0121: SEQ ID NO: 88; H244W+T344A+I396K+S193A+N228D+L305F+I109V (protein)
chain: B1 chain with A316W

Assays:
[1] = Effect of individual mutations: maximum luminescence with CS0333; assay type: biochemical; settings: 10 fM to 1 mM CS0333; Detection Reagent (DR) buffer
Protocol: Experiments were also conducted to evaluate and compare the activities of the various luciferase enzyme variants, including the effects of individual amino acid mutations. To evaluate the effect of individual mutations on luciferase enzyme variants, 0.005 mg/ml luciferase enzyme variant was mixed with 1 mM ATP+10 fM to 1 mM CS0333 in Detection Reagent (DR) buffer.

[2] = Differential scanning fluorimetry (DSF) analysis; assay type: physicochemical; settings: Table 9A
Procedure, shortened: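 Thermal melt with 5× final Sypro Orange: ramp 1° C/min from 30 to 95° C, reading each 60 s, derivative of fluorescence plotted by temperature. Luciferase variants were in 20 mM HEPES pH 7.5, 200 mM NaCl, 1 mM EDTA; other enzymes in 50 mM HEPES pH 7.5, 100 mM NaCl, 2 mM EDTA.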

| Molecule | Vmax (RLU) with CS0333 [1] | DSF Tm (° C.) [2] |
| --- | --- | --- |
| B1 | 3,820,310 RLU | 63 °C |
| B2 | 4,270,690 RLU | 70 °C |
| B3 | 3,192,740 RLU | 62 °C |
| B4 | 3,455,610 RLU | 63 °C |
| B5 | 2,293,340 RLU | 66 °C |
| B6 | 1,300 RLU | 78 °C |
| B7 | 2,841,640 RLU | 72 °C |
| B8 | 2,625,480 RLU | 69 °C |
| B9 | 962,171 RLU | 69 °C |
| B10 | 62,167 RLU | 64 °C |
| B11 | 2,643,970 RLU | 62 °C |
